The target in experiment [1] is HIV-1 SF162 gp120 (wild type, unmodified) (HIV-1 strain SF162) (UniProt P19550). Description: SPR BIAcore 3000, b12 amine-coupled on CM5, gp120 as analyte, 25 C, 1:1 Langmuir fit.
Experiment [2] has as its target disulfide-stabilized SF162 L1-SS-L2 gp120 (V59C & S109C) (HIV-1 strain SF162) (UniProt P19550). Description: SPR BIAcore 3000, b12 amine-coupled on CM5, gp120 L1-SS-L2 as analyte, 25 C, 1:1 Langmuir fit. For orientation: SPR reads the build-up and loss of mass on a sensor chip optically.
Experiment [3] has the same target. Description: SPR BIAcore 3000, b12 immobilized; Kd compared with wild-type gp120.

Experimental findings from patent US20150183835A1 are described below.

As usually defined, the Kd is the concentration at which binding is half-saturated. A higher Kd goes with weaker binding. Usually koff stands for the rate constant with which the complex falls apart. A lower koff goes with slow dissociation. As usually defined, the kon is the rate constant with which the complex forms. High values mean faster complex formation, low ones slower complex formation. Consider mAb b12 (antibody), for which, in experiment [1], the equilibrium dissociation constant (Kd) stood at 44.8 nM, the koff was found to be 0.00712 s⁻¹ and the kon stood at 165000 M⁻¹ s⁻¹. Moreover, in experiment [2], the Kd was determined as 304 nM, the koff was found to be 0.00885 s⁻¹ and the kon amounted to 29100 M⁻¹ s⁻¹. The fold difference in Kd against wild-type gp120 in experiment [3] is less than 7 fold.
